# In PMC10653801:
# B1: OS (O1 scrambled) (dsDNA)
# DNA 1: TATCATTTAACAAACTCGATTTGTTATATATAATTAATTTTTGGTGTTCC
# DNA 2: GGAACACCAAAAATTAATTATATATAACAAATCGAGTTTGTTAAATGATA
# B2: OI (O1 downstream repeat inverted) (dsDNA)
# DNA 1: TATCATTTTTACTGCTATAAAATGACTATATAATTAATTTTTGGTGTTCC
# DNA 2: GGAACACCAAAAATTAATTATATAGTCATTTTATAGCAGTAAAAATGATA
# B3: CO (random + O1) (dsDNA)
# DNA 1: ACTGTGAGCCTAATATTTACTGCTATAACAGTAAAGGCTATCTGATTTTA
# DNA 2: TAAAATCAGATAGCCTTTACTGTTATAGCAGTAAATATTAGGCTCACAGT
# Biological target: HipB(Lp) (Legionella pneumophila Lp01JK, UniProt Q5ZSZ8 1-75)
# Assay: EMSA; HipB 2.5 nM, DNA 10 nM
# Conditions: protein: recombinant; tags: His6-SBP tag cleaved; chain copies: 2; blunt
row,Binder,binding result
1,B1,no binding
2,B2,binds
3,B3,binds
